Laboratory results as given in US20050032221A1, “Dominant negative variants of methionine aminopeptidase 2 (MetAP2) and clinical uses thereof” (priority 2001, published 2005).

Tests used:
peptide substrate (MGMM) = experiment: MetAP activity assay of immunopurified HA-tagged yeast MetAP2 with Met-Gly-Met-Met; assay type: biochemical; details: immunopurified HA-tagged enzyme from map1Δ; 2 mM Met-Gly-Met-Met
Procedure: […]. Approximately 2 μg of purified wild-type MetAP2 (WT) and MetAP2 (H174A) was separated on a 10% SDS-PAGE gel and visualized with coomassie blue staining. Specific activity for the wild-type MetAP2 was 11±0.5 U/mg.
The purification of HA-tagged wild-type and mutant yeast MetAP2 from a yeast map1Δ strain (Klinkenberg et al., Arch. Biochem. Biophys. 347:193-200, 1997) was performed as previously described (Li and Chang, 1995) with slight modifications. A 1-liter yeast culture was grown aerobically at 30° C. in SG/Leu^− medium. Cells were collected at an OD600˜1-2 by centrifugation at 1500×g for 5 min. The pellet was rinsed with buffer XL (10 mM Hepes, pH 7.4; 1.5 mM MgCl2, 10% Glycerol [v/v]) plus 100 mM NaCl and fresh protease inhibitors (1 μg/ml aprotinin, 1 μg/ml leupeptin, 0.7 μg/ml pepstatin A, 1 mM phenylmethylsulfonyl fluoride). Cells were disrupted by vortexing (5 cycles of 1 min vortexing, 1 min on ice) with 0.5-mm acid-washed glass beads (Biospec Products, Inc.,). The lysate was then cleared at 10,000×g for 20 min at 4° C. Cleared lysate was applied to a Protein-Sepharose G column (Pharmacia) previously rinsed and pre-equilibrated with buffer XL and an anti-hemagglutinin epitope ([…]; SEQ ID NO:23) monoclonal antibody (BabCO). After loading, the column was washed with buffer XL until OD280<0.01. […]

yeast map1Δ strain = experiment: Yeast growth assay, map1Δ, expression under GAL1 promoter; assay type: cell-based, yeast (S. cerevisiae); details: galactose plates, 4 days at 30° C.
Procedure: A haploid yeast map1Δ strain was transformed to leucine prototrophy with p425GAL1/MAP2 wild-type (WT), p425GAL1/map2 (H174A), or p425GAL1 vector alone (V). Each strain was grown to mid-logarithmic phase at 30° C. in minimal synthetic raffinose medium lacking leucine. Approximately 2×10^5 cells (ABS600) were then streaked onto minimal synthetic plates lacking leucine and supplemented with (A) glucose or (B) galactose. Plates were incubated for 4 days at 30° C.
A haploid yeast map1Δ strain was transformed to leucine prototrophy with p425GAL1/MAP2 wild-type (WT), p425GAL1/map2 ([…]), p425GAL1/map2 (Δ2-57/H174A) or p425GAL1 vector alone (V). Each strain was grown to mid-logarithmic phase at 30° C. in minimal synthetic raffinose medium lacking leucine. […]
For relative growth comparison, strains were grown to mid-logarithmic phase in 5 ml of 2% raffinose minimal media lacking leucine and ˜2×10^5 cells (ABS600) were streaked onto SD/Leu^− or SG/Leu^− plates, then incubated for 4 days at 30° C. For quantitative comparison, a growth curve was obtained (FIG. 4). […] The ABS600 of each 1 mL culture was measured and diluted to an ABS600 of 0.2 in 5 mL of SG/Leu^−. Each 5 mL culture was then grown aerobically at 30° C. and the ABS600 was measured in triplicate at one-hour intervals.

B1: wild-type MetAP2: wild-type yeast MetAP2 with N-terminal hemagglutinin tag (SEQ ID NO:14) (protein, listed as Saccharomyces sp.)
chain: MTDAEIENSPASDLKELNLENEGVEQQDQAKADESDPVESKKKKNKKKKKKKSNVKKIELLFPDGKYPEGAWMDYHQDFNLQRTTDEESRYLKRDLERAEHWNDVRKGAEIHRRVRRAIKDRIVPGMKLMDIADMIENTTRKYTGAENLLAMEDPKSQGIGFPTGLSLNHCAAHFTPNAGDKTVLKYEDVMKVDYGVQVNGNIIDSAFTVSFDPQYDNLLAAVKDATYTGIKEAGIDVRLTDIGEAIQEVMESYEVEINGETYQVKPCRNLCGHSIAPYRIHGGKSVPIVKNGDTTKMEEGEHFAIETFGSTGRGYVTAGGEVSHYARSAEDHQVMPTLDSAKNLLKTIDRNFGTLPFCRRYLDRLGQEKYLFALNNLVRHGLVQDYPPLNDIPGSYTAQFEHTILLHAHKKEVVSKGDDYGKMRFQMASSLGIILL
modifications: N-terminal HA tag; Yeast MetAP2
- Specific activity (peptide substrate (MGMM)): 11±0.5 U/mg
- colony size / growth relative to map1Δ with vector alone (yeast map1Δ strain): largest observed
